Measurements: KR20240072325A (dated 2024)
Substitutions are numbered along the chain they refer to. Values joined by “and” are separate entries in the source; they are usually repeats but may differ in a detail not shown here. Equal entries are not always repeated.

B1: Anti-SP2에서 발현된 Fv-변이체 (expressed Fv-variant of Anti-SP2, fusion protein with sfGFP and His-tag) (other)
chain: EVQLVESAAEVRRPGASVKITCKASGYSFSTYGIQWMRQAPGQRPEWLGWIHAGTGGTKYSRKFQGRITITRDTSANTVYLDLNSLTSEDTAVYYCARCLRQAGTADDVWGQGTTVTVSS
B2: Anti-SP1에서 발현된 Fv-변이체 (expressed Fv-variant of Anti-SP1, fusion protein with sfGFP and His-tag) (other)
chain: B1 chain with C99G, L100R, R101T, Q102T, A103G, G104N, T105D, A106R, D107P, V109Y

Target: SARS-CoV-1 스파이크 단백질 (SARS-CoV-1 spike protein, SP) (SARS-CoV-1, UniProt P59594 14-1195)

Binder	Kd
B1	16.2 nM and 42.2 nM
B2	41.7 nM and 14.1 nM
